Experimental data taken from paper PMC8038143, “Conformation-Specific Inhibitory Anti-MMP-7 Monoclonal Antibody Sensitizes Pancreatic Ductal Adenocarcinoma Cells to Chemotherapeutic Cell Kill” (Cancers, 2021).

What was measured:
[1] = molecular target: T1, recombinant catalytic human MMP-7 (active enzyme) (Homo sapiens, UniProt P09237); assay: cell-based or functional assay
[2] = molecular target: T1, recombinant catalytic human MMP-7 …; assay: ELISA; 96-well plate coated with MMPs at 5 mg/mL; GSM-192 incubated at 25 °C for 1 h; detected with goat anti-Fab/anti-mouse antibody and peroxidase-conjugated anti-goat antibody; four-parametric sigmoidal fit; details: both partners purified

T1 sequence (P09237 95-258): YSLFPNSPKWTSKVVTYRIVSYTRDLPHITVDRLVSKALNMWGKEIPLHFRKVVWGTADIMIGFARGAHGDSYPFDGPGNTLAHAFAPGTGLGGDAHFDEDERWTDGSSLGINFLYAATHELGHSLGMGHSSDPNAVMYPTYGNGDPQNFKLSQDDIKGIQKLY

EC50 [2]: 43 ± 1 nM
B1: GSM-192 anti-MMP-7 monoclonal antibody (antibody, V domains shown)
VH: EVQLQQSGPELVKPGASVKIPCKASGYTFTDYNMDWMKQSHGKSLEWIGHINPNNGGTFYNQKFKDKATFIVDKSSNTAYMELRSLTSEDTAVYFCARGGGLRRGPFAYWGQGTLVTVS
VL: DIVTQSPASLAVSLGQRATISCRASESFDSYGNTFVHWYQQKPGQPPKLLIYLVSNLESGVPAGFRGRGSRTDFTLTIDPVEADDAATYYCQQNNEDPYTFGGGTKLEIK
notes: Whole mouse monoclonal antibody; source: mouse hybridoma (BALB/c B cells fused with NSO myeloma cells), supernatant, purified (protein A column)
death of AsPC-1 PDAC cells treated with GSM-192, IC50 [1]: 2300 nM | death of CFPAC-1 PDAC cells treated with GSM-192, IC50 [1]: 4300 nM
